In patent US20230295310A1 (ABCELLERA BIOLOGICS, published 2023):

Key:
[1] = target: T1, human CD3e/g (human, UniProt P07766 23-126; P09693 23-116); assay: SPR (Carterra LSA), mAb on chip
T1 construct: Bought soluble protein; also called hCD3e/g; human CD3e/g (Acro CDD-C52W4)
Method in brief: (§1)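 Purified mAbs amine-coupled (EDC/S-NHS) at 10 μg/mL in 10 mM NaOAc pH 4.25 onto an HC-30M chip, with benchmark and negative-control mAbs; analyte flowed over the array. Double-referenced sensorgrams fitted globally to a 1:1 Langmuir model for ka, kd and KD.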

[2] = target: T2, human CD3e/d (human, UniProt P07766 23-126; P04234 22-105); assay: SPR (Carterra LSA), mAb on chip
T2 construct: Bought soluble protein; also called hCD3e/d; human CD3/ed (Sino CT038-H2508H)
T2 sequence (P07766 23-126, chain 1 of 2): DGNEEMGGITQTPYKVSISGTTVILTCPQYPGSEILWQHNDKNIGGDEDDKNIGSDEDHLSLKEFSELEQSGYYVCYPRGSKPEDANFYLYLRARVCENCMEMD
T2 sequence (P04234 22-105, chain 2 of 2): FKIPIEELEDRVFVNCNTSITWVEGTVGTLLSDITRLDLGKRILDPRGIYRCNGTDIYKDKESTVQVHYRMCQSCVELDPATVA
Method in brief: as §1

T1 sequence (P07766 23-126, chain 1 of 2): as the sequence (P07766 23-126, chain 1 of 2) above
T1 sequence (P09693 23-116, chain 2 of 2): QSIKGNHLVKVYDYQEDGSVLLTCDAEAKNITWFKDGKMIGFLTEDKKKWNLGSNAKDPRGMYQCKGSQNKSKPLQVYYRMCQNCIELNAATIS

| Binder | Kd [1] [nM] | Kd [2] [nM] |
| --- | --- | --- |
| mAb 198 (antibody, V domains shown, VH and VL only) VH: QVQLVESGGGVVQPGGSLRLSCAASGFTFSGYGMHWVRQAPGKGLEWVAIIWYNGRKTYYAESVKGRFTISRDNSKNTLSLQMNSLRIEDTAVYYCTTGQGYNWFDPWGQGTLVTVSS VL: EIVMTQSPATLSVSPGERATLSCRASQSVSSNLAWYQQKPGQAPRLLIYGASTRATGIPARFSGSGSGTEFTLTISSLQSEDFAVYYCQQFNAWPLTFGGGTKMEIK | 30 | 41 |
| mAb 206 (antibody, V domains shown, VH and VL only) VH: QVQLVESGGGVVQPGRSLRLSCAASGFTFSGYGMHWVRQAPGKGLEWVAIIYYNGNNRKYADSVKGRFTISRDNSKNTVSLQMNSLRVEDTAIYYCTRGDGYNWFVTWGQGTLVTVSS VL: EIVMTQSPATLSVSPGERATLSCRASQSVSSNLAWYHQKPGQAPRLLIYGASTRATGIPVRFSGSGSGTEFTLTISSLQSEDFAVYYCQQYNNWPLTFGGGTKVEIK | 33 | 73 |
| mAb 204 (antibody, V domains shown, VH and VL only) VH: QVQLVESGGGVVQSGRSLRLSCAASGFTFSGYGMHWVRQAPGKGLEWVAIVYYDGKNKYYADSVKGRFTISRDNSKNTLYLQMNSLRAEDTAVYYCVRGEGYNWFDPWGQGTLVTVSS VL: EIVMTQSPATLSVSPGERATLSCRASQSVSSNLAWYQQKPGQVPRLLIYGASTRATGIPARFSGSGSGTQFTLTISSLQSEDFAVYYCQQYNNWPLTFGGGTKVEIK | 90 | 200 |
| mAb 221 (antibody, V domains shown, VH and VL only) VH: QVQLVESGGGVVQPGGSLRLSCAASGFTFSGYGMHWVRQAPGKGLEWVAIIWYNGRKTYYAESVKGRFTISRDNSKNTLSLQMNSLRVEDTAVYYCTAGQGYNWFDPWGQGTLVTVSS VL: EIVMTQSPATLSVSPGERATLSCRASQSVSSNLAWYQQKPGQAPRLLIYGASTRATGIPARFSGSGSGTEFTLTISSLQSEDFAVYYCQQFNAWPLTFGGGTKMEIK | 25 | 38 |
| mAb 199 (antibody, V domains shown, VH and VL only) VH: QVQLVESGGGVVQPGRSLRLSCAASGFTFSGYGMHWVRQAPGKGLEWVAIIYYNGKKEYYADSVKGRFTIFRDNSKNTLYLHMNSLRAEDTAVYYCTRGEGYNWFDPWGQGTLVTVSS VL: EIVMTQSPATLSVSPGERATLSCRASQSVSRNLAWYQQKPGQAPRLLIYGASTRATGIPARFSGSGSGTEFTLTISSLQSEDFAVYYCQQYNNWPLTFGGGTKVEIK | 29 | 26 |
| mAb 222 (antibody, V domains shown, VH and VL only) VH: QVQLVESGGGVVQPGRSLRLSCAASGFTFSGYGMHWVRQAPGKGLEWVAIIYYNGKKEYYADSVKGRFTISRDNSKNTVYLQMNSLRAEDTAVYYCTRGEGYNWFDPWGQGTLVTVSS VL: KIVMTQSPATLSVSPGERATLSCRASQSVSSNLAWYQQKPGQAPRLLIYGASTRATGIPARFSGSGSGTEFTLTISSLQSEDFAVYYCKQYNNWPLTFGGGTKVEIK | 8.2 | 16 |
| mAb 217 (antibody, V domains shown, VH and VL only) VH: QVQLVESGGGVVQPGRSLRLSCAASGFTFSGYGMHWVRQAPGKGLEWVAIIYYNGKKEYYADSVKGRFTIFRDNSKNTVYLQMKSLRAEDTAVYYCTRGEGYNWFDPWGQGTLVTVSS VL: not shown | 17 | 38 |
| mAb 193 (antibody, V domains shown, VH and VL only) VH: QVQLVESGGGVVQPGRSLRLSCAASGFTFSGYGMHWVRQAPGKGLEWVAIIYYNGNNRKYADSVKGRFTISRDNSKNTVSLQMNSLRVEDTAIYYCTRGDGYNWFVTWGQGTLVTVSS VL: EIVMTQSPATLSVSPGERATLSCRASQSVSSNLAWYHQKPGQAPRLLIYGASTRATGIPVRFSGSGSGTEFTLTISSLQSDDFAVYYCQQYNNWPLTFGGGTKVEIK | 29 | 93 |
| mAb 224 (antibody, V domains shown, VH and VL only) VH: QVQLVESGGGVVQPGRSLRLSCAASGFTFSGYGMHWVRQAPGKGLEWVAIIYYNGKKEYYADSVKGRFTISRDNSKNMLYLQMNGLRAEDTAIYYCTRGEGYNWFDPWGQGTLVTVSS VL: EIVMTQSPATLSVSPGERTTLSCRASQSVSNNLAWYQQKPGQAPRLLIYGASTRATGIPARFSGSGSGTEFTLTISSLQSEDFAVYYCQQYNNWPLTFGGGTKVEIK | 18 | 39 |
| mAb 203 (antibody, V domains shown, VH and VL only) VH: QVQLVESGGGVVQPGGSLRLSCAASGFTFRGYGMHWVRQAPGKGLEWVAIIYYNGRKTYYAESVKGRFTISRDNSKNTLSLQMNSLRVEDTAVYYCTAGQGYNWFDPWGQGTLVTVSS VL: EIVMTQSPATLSVSPGERATLSCRASQSVSSNLAWYQQKPGQAPRLLIYGASTRATGIPARFSGSGSGTEFTLTISSLQSEDFAVYYCQQFNAWPLTFGGGTKMEIK | 9.5 | 17 |
| mAb 205 (antibody, V domains shown, VH and VL only) VH: QVQLVESGGGVVQPGKSLRLSCAASGFTFSGYGMHWVRQAPGKGLEWVAIIYYNGKKEYYADSVKGRFTISRDNSKNTLYLQMNSLRAEDTAVYYCTRGEGYNWFDPWGQGTLVTVSS VL: EIVMTQSPATLSVSPGERATLSCRASQSVSSNLAWYQQKPGQAPRLLIYGASTRATGIPARFSGSGSGTEFTLTISSLQSEDFAVYYCKQYNNWPLTFGGGTKVEIK | 8.4 | 13 |
| mAb 201 (antibody, V domains shown, VH and VL only) VH: QVQLVESGGGVVQPGRSLRLSCAASGFTFSGYGMHWVRQAPGKGLEWVAIIYYNGKKEYYADSVKGRFTISRDNSKNTLYLQMNSLRAEDTAVYYCTRGEGYNWFDPWGQGTLVTVSS VL: EIVMTQSPATLSVSPGERATLSCRASQSVSSSLAWYQQKPGQAPRLLIYGASTRATGIPARFSGSGSGTEFTLTISSLQSEDFAVYYCQQYNNWPLTFGGGTKVEIK | 13 | 28 |
| mAb 216 (antibody, V domains shown, VH and VL only) VH: QVQLVESGGGVVQPGRSLRLSCAASGFTFSGYGMHWVRQAPGKGLEWVAIIYYNGKKEYYADSVKGRFTISRDNSKNTLYLQMNSLRAEDTAVYYCTRGEGYNWFDPWGQGTLVTVSS VL: EIVMTQSPATLSVSPGERATLSCRASQSVSSNLAWYQQKPGQAPRLLIYGASTRATGIPARFSGSGSGTEFTLTISSLQSEDFAVYYCKQYKNWPLTFGGGTKVEIK | 6.8 | 9.3 |
| mAb 209 (antibody, V domains shown, VH and VL only) VH: QVQLVESGGGVVQPGRSLRLSCAASGFTFSGYGMHWVRQAPGKGLEWVAIIYYNGKKEYYADSVKGRFTVSRDNSKNMLYLQMNSLRAEDTAVYYCTRGEGYNWFDPWGQGTLVTVSS VL: EIVMTQSPATLSVSPGERATLSCRASQTVSSNLAWYQQKPGQAPRLLIYGASTRATGIPARFSGSGSGTEFTLTISSLQSEDFAVYYCKQYNNRPLTFGGGTKVEIK | 5.7 | 5.5 |
| mAb 54 (antibody, V domains shown, VH and VL only) VH: EVQLEESGGGLVQPGGSLRLSCAASGFTFSRYSMNWVRQAPGKGLEWFSYISSSSRTIYYADSVKGRFTMSRDNAKNSLYLQMNSLRDEDTAVYFCARGDYYDSEGMDVWGKGTTVTVSS VL: DIQMTQSPSTLSASVGDRVTITCRASQTITTWLAWYQQKPGKAPKLLIYKASTLESGVPSRFSGSGSGTEFTLTISSLQPDDFATYHCQQYKTFSYTFGQGTKLDIK | 83.2 | 553 |
